Measurements taken from patent US6602687B1, “DNA encoding human ciliary neurotrophic factor and method for producing the protein encoded thereby” (Regeneron Pharmaceuticals, Inc., priority 1989, dated 2003).

How the values were obtained:
Format in all cases: cell-based
[1] = system: E8 dorsal root ganglion neurons; test: Survival and neurite outgrowth of dorsal root ganglion neurons / DRG assay with E. coli protein extracts; settings: protein extracts of E. coli carrying human CNTF sequence in pCP93
Description: In addition, protein extracts were prepared from the same cells lysed by treatment with lysozyme followed by three cycles of freezing and thawing. […] No such activity could be detected in control extracts from the same host cells carrying the plasmid vector without the rCNTF gene.
Human CNTF sequence, engineered to lack intron sequences, has been inserted into the pCP93 vector and used to transform competent E. coli.

[2] = system: E8 chick ciliary ganglion neurons; test: Survival of dissociated E8 chick ciliary ganglion neurons; settings: increasing amounts of pure protein
Text: Ciliary neurotrophic factor activity may be evaluated using any CNTF-sensitive in vivo or in vitro system known in the art. For example, and not by way of limitation, in vitro systems have been developed which measure CNTF activity by quantitating 24-hour survival of embryonic (E8) chick ciliary ganglion (CG) neurons in monolayer cultures.
For example, ciliary ganglia may be collected from E8 chick embryos, dissociated (yielding approximately 20,000 cells per ganglion) and then diluted in HEBM medium containing 20 percent horse serum as described in Varon et al. (1979, Brain Res. 173:29-45). About fifty microliters of cell suspension containing neurons (2,000 cells) may then be seeded into microliter dishes and putative CNTF activity may be added. Culture plates may then be maintained at 37° C. in 5% CO2 for 24 hours, after which the cultures may be fixed by the addition of 200 μl 2 per cent glutaraldehyde in HEBM medium, and the number of surviving neurons may be determined visually by direct count under phase contrast microscopy.
Chick embryo ciliary ganglion cultures were created and maintained according to the method set forth in (Hughes et al., 1988, Nature 335 : 70-73).
(§1) Biological activity of recombinant CNTF was assayed on explants of chick embryo dorsal root ganglia (DRG) and dissociated cultures of ciliary ganglion (CG) neurons as described in Lindsay and Rohrer (1985, Devel. Biol 112:30-48). Briefly, DRG were dissected from chick embryos of 10 days incubation (E10) and 5-6 ganglia were explanted in 1 ml of a collagen gel matrix in 35 mm tissue culture dishes. After the gel had set, 1 ml of tissue culture growth medium F14 (Imperial Labs., U.K.) supplemented with 5% heat-inactivated horse serum (GIBCO) was added before adding human CNTF (1-20 l) to a final concentration of 100 pg to 100 ng/ml. CG were dissected from E8 chick embryos and incubated for 30 min in 0.25% trypsin (Worthington) in calcium- and magnesium-free phosphate buffered saline. The ganglia were then washed three times in F14 medium containing 5% horse serum before being dissociated to a single cell suspension by trituration through the bore of a Pasteur pipette. Enrichment for CG neurons was achieved by plating the cell suspension for 3.5 hr in a 60 mm dish, during which non-neuronal cells (fibroblasts and Schwann cells) attached firmly to the plastic while phase-bright neurons remained in suspension. The purified neurons were plated on polyornithine-laminin-coated 35 mm culture dishes at 8,000-10,000 neurons/dish. In explant cultures CNTF activity was determined by assessing the extent of fiber outgrowth in treated cultures compared to controls. Fiber outgrowth was scored on a scale of 0 to 5+, by comparing cultures to photographs of a dose-response of explanted DRG and NGF. In dissociated CG neuron cultures, CNTF activity was determined by counting at 48 hr the percentage of process-bearing neurons in control and CNTF-treated cultures. In all cases results were derived from triplicate cultures.

E10 chick DRG = test: Fiber outgrowth from explants of E10 chick embryo dorsal root ganglia
Description: as §1, with “The ganglia were then washed three times in F14 medium containing 5% horse serum before being dissociated to a single cell suspension by trituration through the bore of a Pasteur pipette. Enrichment for CG neurons was achieved by plating the cell suspension for 3.5 hr in a 60 mm dish, during which non-neuronal cells (fibroblasts and Schwann cells) attached firmly to the plastic while phase-bright neurons remained in suspension. The purified neurons were plated on polyornithine-laminin-coated 35 mm culture dishes at 8,000-10,000 neurons/dish.” left out, “In all cases results were derived from triplicate cultures.” left out

B1: recombinant human CNTF: human ciliary neurotrophic factor expressed in E. coli (protein, UniProt P26441 1-200, looked up)
Ciliary neurotrophic factor: MAFTEHSPLTPHRRDLCSRSIWLARKIRSDLTALTESYVKHQGLNKNINLDSADGMPVASTDQWSELTEAERLQENLQAYRTFHVLLARLLEDQQVHFTPTEGDFHQAIHTLLLQVAAFAYQIEELMILLEYKIPRNEADGMPINVGDGGLFEKKLWGLKVLQELSQWTVRSIHDLRFISSHQTGIPARGSHYIANNKKM
CNTF activity in DRG assay [1]: CNTF activity
activity towards chick ciliary neurons compared with rat CNTF [2]: as active as rat CNTF
maximum fiber outgrowth at saturating levels, relative to saturating levels of NGF (E10 chick DRG): 50-75%
